ChEMBL document CHEMBL3526099, “Metabolism of triethylenetetramine and 1,12-diamino-3,6,9-triazadodecane by the spermidine/spermine-N(1)-acetyltransferase and thialysine acetyltransferase” (Drug Metab Dispos, 2013)

Substrate: NCCNCCNCCN
Experiment: not read

B1: Thialysine N-epsilon-acetyltransferase (Homo sapiens) (protein)
chain: MASVRIREAKEGDCGDILRLIRELAEFEKLSDQVKISEEALRADGFGDNPFYHCLVAEILPAPGKLLGPCVVGYGIYYFIYSTWKGRTIYLEDIYVMPEYRGQGIGSKIIKKVAEVALDKGCSQFRLAVLDWNQRAMDLYKALGAQDLTEAEGWHFFCFQGEATRKLAGK
- Km: 2500 µM
- Vmax: 3.96 µmol/min/mg
